Data as given in the nanobody polyreactivity screen of Harvey et al. (2022).

Experiment: yeast display, Sf9 membrane polyspecificity reagent, FACS + sequencing; frameworks hold sequencing errors
How it was run: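 Nanobodies from a synthetic yeast display library (Saccharomyces cerevisiae BJ5465), induced 36–48 hours with galactose, were stained 1 hour at 4 °C with 10% biotinylated, detergent-solubilized Sf9 membrane reagent, enriched on streptavidin microbeads, then FACS-sorted. Anti-HA (expression) and streptavidin (reagent binding) fluorescence set low and high (top ~1%) gates. Polyreactivity labels come from the gate of origin. Genes were colony-PCR amplified, MiSeq 2 × 250 sequenced and filtered by CDR length.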

Sequence	polyreactivity (PSR sort gate)
QVQLVESGGGLVQAGGSLRLSCAASGSIFSFNAMGWYRQAPGKERELVAAISWRGASTYYADSVKGRFTISRDNAKNTVYLQMNSLKPEDTAVYYCAAESTFILQYSYIYYDGHYDYWGQGTQVTVSS	low polyreactivity
QVQLVESGGGLVQAGGSLRLSCAASGSIFGSYAMGWYRPAPGKERELVAGITYRGSSTYYADSVKGRFTISRDNAKNTVYLQMNSLKPEDTAVYYCAADSVFDEYDYWGQGTQVTVSS	low polyreactivity
QVQLVESGGGLVQAGGSLRLSCAASGRTFYGYAMGWYRQAPGKERELVATITRRGGSTYYADSVKGRFTISRDNAKNTVYLQMNSLKPEDTAVYYCARQGDQYYRDGDDYWGQGTQVTVSS	high polyreactivity
QVQLVESGGGLVQAGGSLRLSCAASGYIFDRYAMGWYRQAPGKERELVAAISGRGGSTYYADSVKGRFTISRDNAKNTVYLQKNSLKPEDTAFYYCARDVYVRNGQRARYDSWGQGTQVTVSS	high polyreactivity
QVQLVESGGGLVQAGGSLRLSCAASGRIFFYYAMGWYRQAPGKERELVAAISKSGGRTYYADSVKGRFTISRDNAKNTVYLQMNSLKPEDTAVYYCAAYSAHDSDYWGQGTQVTVSS	high polyreactivity
QVQLVESGGGLVQAGGSLRLSCAASGSIFHFNAMGWYRQAPGKERELVATITSSGSSTYYADSVKGRFTISRDNAKNTVYLQMNSLKPEDTAVYYCAAGWFWQMDYWGQGTQVTVSS	low polyreactivity
QVQLVESGGGLVQAGGSLRLSCAASGSISDIYTMGWYRQAPGKERELVAAITGSAGSTYADSVKGRFTLSRDNAKNTVYLQMNSLKPEDTAVYYCNAQPGDDVKVKLDYWGQGTQVTVSS	low polyreactivity
QVQLVESGGGLVQAGGRLRLSSAASGIIFGNNAMGWYRQAPGKERELVAAIRYSGGRTYYADSVKGRFTISRDIAKNTVYLQMNSLKPEDTAVYYCNALRRGPDGSDYWGQGTQVTVSS	high polyreactivity
QVQLVESGGGLVQAGGSLRLSCAASGIIFNYYAMGWYRQAPGKERELVAAISASGGSTYYADSVKGRFTISRDNAKNTVYLQMNSLKPEDTAVYYCNAAVLYRQYGRGDYWGQGTQVTVSS	low polyreactivity
QVQLVESGGGLVQAGGSLRLSCAASGRIFWDNAMGWYRQAPGKERELVAAISDSVVITYYADSVKGRFTISRDNAKNTVYLQMNSLKPEDTAVYYCAADKRGTVYLSSFWMDYWGQGTQVTVSS	low polyreactivity
QVQLVESGGGLVQAGGSLRLSCAASGSTFKTYSMGWYRQAPGKERELVAAISGNGGSTYYADSVKGRFTISRDNAKNTVYLQMNILIPEDTAVYYCAAKRRRHFSRGYEYWGQGSQVTVSS	high polyreactivity
QVQLVESGGGLVQAGRSLRLSCAASGSTYSLDAMGWYRQAPGKERELVAAISWSDGSTYYADSVKGRFTISRDNAKNTVYLLMNSLKPEDTAVYYCGADSTVRPYVHSGDYWGQCTQVTVSS	low polyreactivity
QVQLVESGGSLVQAGGSLRLSCSASGFIFYTNAMGWYRQAPGKERELVAAISSRGTRTYYADSVKGRFTISRDNAKNSVYLQLNSLKPEDTAVYYCAVRTRYLGLEYYYWGQGSQVTVSS	high polyreactivity
QLQLVESGGGLVQAGGSLRLSCAASGSTFAANAMGRYRQAPGKERELVAASTSSGGSTYYADSVKGRFTISRDNAQNTVYLQMNSLKPEDTAVYYCAADRWYITLSIDATISYDYWGQGTQVTVSS	low polyreactivity
QVQLVESGGGLVQAGGSLRLSCAASGFIFTGYAMGWYRQAPGKERELVAAITRNGGSTYYADSVKGRFTISRDNAKNSVYLQMNSLKPEDTAVYYCAARGNRVSPEYYYWGQGTQVTVSS	high polyreactivity
QVQLVESVGGLVQAGGSLRLSCAASGSITVANAMGWYSQAPGKESELVAAITDSGDDTYYADSVKGRFTNSRDNAKNTVYLLMNSLKAEDTAVYYCAVEAWSVPPYDYWGQGTQVTVSS	low polyreactivity
QVQLVESGGGLVQAGGSLRLSCAASGRTFTTYAMGWYRQAPGKERELVASISGSGGSTYFADSVKGRFTISRDNAKNTVYLQMNSLKPEDTAVYYCATADYYHGGYYYPYDDYWGQGTQVTVSS	low polyreactivity
QVQLVESGGGLVQAGGSLRLSCAASGSTFLRYAMGWYRQAPGKERELVAAISVSGGSTYYADSVKGRFTISRDNAKNTVYLQMNCLKPEDTAVYYCAAVYKRLQPYGYWGQGTQVTVSS	high polyreactivity
QVQLVESGGGLVQAGGSLRLSCAASGSTFLHYAMGWYRQAPGKEREFTYYADSVKGRFTISRDNAKNTVYLHMNSLNPEDTAVYYCNAGPYWSPYGDDFGYWGQGTQVTVSS	low polyreactivity
QVQLVESGGGLVQAGGSLRLSCAASGSTFDYNAMGWYRQAPGKERELVAAITTVGITYYADSVKGRFTISRDNAKNTVYLQMNSLKPEDTAVYYCAARSVRYGGRYDYWGQGTQVTVSS	high polyreactivity
QVQLVESGGGLVQAGGSLRLSSAASGRIFDANDMGWYRQAPGQERELVAVISSRGGSTYYADSVKGRFTISRDNAKNTVDLQMNSLKPEEAAVYYCAKGLSVAGYDYWGQGTQVTVSS	low polyreactivity
QVQLVESGGGLVQAGGSLRLSCAASGSTFTANAMGWYRQAPGKERELVAAISRSGGSTYYADSVKGRFTISRDNAKNTVYLQMNSLKPEDTAVYYCAADEYYQVSAYDYWGQGTQVTVSS	low polyreactivity

Sequence	polyreactivity (PSR sort gate)
QVQLVESGGGLVQAGGSLRLSCAASGRTFAKYAMGWYRQAPGKEREWVAAINSSGGSTYYADSVKGRFTISRDNAKNTVYLQMNSLKPEDTAVYYCAKEYYSYDVYLGVSYVGRYDYWGQGTQVTVSS	low polyreactivity
QVQLVESGGGLVQAGGSLRLSCAASGSTFGPYTMGWYRQAPGKERELVAAISYSGASTYYADSVKGRFTISRDNAKNTVYLQMNSLKPEDTAVYYCNTVYRYTRARYPYDYWGQGTQVTVSS	high polyreactivity
QVQLVESGGGLVQAGGSLRLSCAASGRTFSYYAMGWYRQAPGKERELVAAISSGGSTNYADSVKGRFTISRDNAKNTVYLQMNSLKPEDTAVYYCATSSICGSGRVRWVTYYYWGQGTQVTVSS	low polyreactivity
QVQLVESGGGLVQAGGSLRLSCAASGFTFYANTMGWYRQAPGKERELVAAISKSGGRTYYADSVKGRFTISRDNAKNTVYLQMNSLKPEDTAVYYCAASSGYKRNYWGQGTQVTVSS	high polyreactivity
QVQLVESGGGLVQAGGSLRLSCAASGSIFAANAMGWYRQAPGKERELVADITKSGGSTYYADSVKGRFTISRDNAKNTVYLQMNSLKPEDTAVYYCNADDTQLESFAPGHGYDYWGQGTQVTVSS	low polyreactivity
QVQLVESGGGLVQAGGSLRLSCAASGRIFGYYAMGWSRQAPGKEWELVAAISSGGRTYYADSVKGRFTISRDNAKNTVYLQMNSLKPEDTAVYYCAARSRVPPAGPRYDYWGLGTQVTVSS	high polyreactivity
QVQIVESGGGLVQAGGSVRLSCAASGRTFYYNAMGWYRQAPGKERELVASISSSDSDTYYADSVKGRFTISRDNAKNTVYLQMNSLKPEDTAVYYCAAEYYWDLTFTRYDYWGQGTQVTVSS	low polyreactivity
QVQLVESAGGLVQAGVRLRLSCAASGRTFVCNAMGSYRQAPGKERELVADITWSGDITYYADSVKGRFTISRDNAKNTVYLQMNSLKPEDTAVYYCAADYHRRLTDYDYWGQGTQVTVSS	low polyreactivity
QVQLVESGGGLVQAGGSLRLSCAASGFTFSTNAMGWYRQAPGKERELVAAISKSGVSTYYADSVKGRFTISRDNAKNTVYLQMNSLKTEDTAVYYCAADPKIALYKVWRYDYWGQGTQVTVSS	high polyreactivity
QVQLVESGGGLVQAGGSLRLSCAASGSTFVAYAMGWYRHAPGKERELVADISTSDGSTRYADSVKGRFTISSDNAKNTVYLQMISLKPEDTAVYYCGAGSEYYSYGGVRFSFYYWGQGTQVTVSS	low polyreactivity
QVQHVESGGCLVQAGGSLRLSCAASGLIIKSYVMGWYRQAPGKERELVAGITGSGGTTYYADSVKGRFTISRDNAKNTVDLQMNSLKPEDTAVYYCDARSRSRPKYDYWGQGTQVTVSS	high polyreactivity
QVQLVESGGGLVQAGGSLRLSCSASGSIYSYYTMGSYIQAPGKERELVAAITGSGGRTYYADSVKGRFTISRDNAKNTVYLQMNSLKQEDTAVYYCNADRHYVPYYSRPRYIPYDYWGQGTQVTVSS	high polyreactivity
QVQLVESGGGLVQAGGSLRLSCAASGSIFYDNGMGWYRQAPGKERELVAAISRGGTTNYSDSVKGRFTISRDKAKNTVYLQMNSLKPEDTAVYYCNAETRFTYWGSWYDYWGQGTQVTVSS	low polyreactivity
QVQLVDSGGGLVQAGGSLRLSCAASGIIFSVYAMGWYRQAPGKERELVAAITYSGGSTYYADSVKGRFTISRDNAKNTVYLQMNSLKPEDTAVYYCNAYRYNALPWRYVGYDYWGQGTQVTVSS	low polyreactivity
QVQLVESGGGLVQAGGRLRLSCAASGSTFVPYAMGWSRQAPGKERELVAGITWSGGRTYYADSVKGRFTISRDNAKNTVYFQLNSLKPEDTAVYYCNVEHLVYKYDGYYSRYYRLYYWGQGTHVTVSS	low polyreactivity
QVQLVESGGGLVQAGASLRLSCAASGLTYSHYAMGWYRQAPGKERQLVAGISSRGGNTYYADSVKGRFTISRDNAKNTVYLQMNSLKPEDTAVYYCNAPKPKRAYDYWGQGTQVTVSS	high polyreactivity
QVQLVESGGGVVQAGGSLRLSCAASGSTMGYYAMGWYRPAPGKERELVATITRSGGNTYYADSVKGRFTISRDNAKNTVYLQMNSLKPDDNAVYYCAARRLYGSQRGYWGHGTQVTVSS	high polyreactivity
QVQLVESGGCLVQAGGSLRLSCAASGRIFVTYAMGWYRQAPGNERELVAAITSRGGRTYYADSVKGRFTISRDYAKNTVYLQMNSLKPEDTAVYYCAASPGPGARYYYWCQGTQVTVSS	high polyreactivity
QVQLVESGGGLVQSGGSLRLSCDPSGSIFSHNAMGWYRQAPGKERELVAAITASSGSTYYADSVKGRFTISRDNAKNTVYLQMNSLKPEVNAVYFCARVSRKRHQQDGKYGYWGQGTQVTVSS	high polyreactivity
QVQLLESGGGLVQPGGSLRLSCAASGSTFDSYVKGWYRKAPGKERELVAANSSDDSTYYADSVKGRFTISRDNAKNTVYLQMISLKPEDTAVYYCAATNFRDYYCSWNYYYWGQGTQVTVSS	low polyreactivity
QVQLVESGGGLDQAGGSLRLSCAASGNIFYRYAMGWYRQAPWKERELVAAISGNSGNTYYADSVKGRFTISRDNAKNTVYLQMNSLKPEDTAVYYCAAERRAFGHYSWGQGTQVTVSS	high polyreactivity
